Target: recombinant HCV E2 protein (eEnzyme)

B1: CD45 (Enzo Life Sciences) (protein)
chain: SCNLDEQQELVERDDEKQLMNVEPIHADILLETYKRKIADEGRLFLAEFQSIPRVFSKFPIKEARKPFNQNKNRYVDILPYDYNRVELSEINGDAGSNYINASYIDGFKEPRKYIAAQGPRDETVDDFWRMIWEQKATVIVMVTRCEEGNRNKCAEYWPSMEEGTRAFGDVVVKINQHKRCPDYIIQKLNIVNKKEKATGREVTHIQFTSWPDHGVPEDPHLLLKLRRRVNAFSNFFSGPIVVHCSAGVGRTGTYIGIDAMLEGLEAENKVDVYGYVVKLRRQRCLMVQVEAQYILIHQALVEYNQFGETEVNLSELHPYLHNMKKRDPPSEPSPLEAEFQRLPSYRSWRTQHIGNQEENKSKNRNSNVIPYDYNRVPLKHELEMSKESEHDSDESSDDDSDSEEPSKYINASFIMSYWKPEVMIAAQGPLKETIGDFWQMIFQRKVKVIVMLTELKHGDQEICAQYWGEGKQTYGDIEVDLKDTDKSSTYTLRVFELRHSKRKDSRTVYQYQYTNWSVEQLPAEPKELISMIQVVKQKLPQKNSSEGNKHHKSTPLLIHCRDGSQQTGIFCALLNLLESAETEEVVDIFQVVKALRKARPGMVSTFEQYQFLYDVIASTYPAQNGQVKKNNHQEDKIEFDNEVDKVKQDANCVNPLGAPEKLPEAKEQAEGSEPTSGTEGPEHSVNGPASPALNQGS
dephosphorylation in an in vitro reaction (phosphotyrosine immunoblot): dephosphorylated by CD45
